Test results taken from US10087225B2, “Formulation of MK2 inhibitor peptides” (MOERAE MATRIX, INC., priority 2015, dated 2018).

What was measured:
Assay in all cases: Kinase Profiling Assay
Format in all cases: biochemical
cKit(V654A)(h) = cKit(V654A)(h) (Homo sapiens, UniProt P10721, V654A)
Met(h) = Met(h) (Homo sapiens, UniProt P08581); settings: 100 μM
cKit(D816H)(h) = cKit(D816H)(h) (Homo sapiens, UniProt P10721, D816H)
DAPK2(h) = DAPK2(h) (Homo sapiens, UniProt Q9UIK4); settings: 100 μM
GSK3β(h) = GSK3β(h) (Homo sapiens, UniProt P49841); settings: 100 μM
Hck(h) activated = Hck(h) activated (Homo sapiens, UniProt P08631); settings: 100 μM
CDK5/p35(h) = CDK5/p35(h) (Homo sapiens, UniProt Q00535); settings: 100 μM
CaMKIIδ(h) = CaMKIIδ(h) (Homo sapiens, UniProt Q13557); settings: 100 μM
ROCK-II(h) = ROCK-II(h) (Homo sapiens, UniProt O75116); settings: 100 μM
Rsk2(h) = Rsk2(h) (Homo sapiens, UniProt P51812); settings: 100 μM
TLK2(h) = TLK2(h) (Homo sapiens, UniProt Q86UE8); settings: 100 μM
NEK11(h) = molecular target: T1, NEK11(h) (Homo sapiens, UniProt Q8NG66); settings: 100 μM
T1 sequence (Q8NG66 1-645): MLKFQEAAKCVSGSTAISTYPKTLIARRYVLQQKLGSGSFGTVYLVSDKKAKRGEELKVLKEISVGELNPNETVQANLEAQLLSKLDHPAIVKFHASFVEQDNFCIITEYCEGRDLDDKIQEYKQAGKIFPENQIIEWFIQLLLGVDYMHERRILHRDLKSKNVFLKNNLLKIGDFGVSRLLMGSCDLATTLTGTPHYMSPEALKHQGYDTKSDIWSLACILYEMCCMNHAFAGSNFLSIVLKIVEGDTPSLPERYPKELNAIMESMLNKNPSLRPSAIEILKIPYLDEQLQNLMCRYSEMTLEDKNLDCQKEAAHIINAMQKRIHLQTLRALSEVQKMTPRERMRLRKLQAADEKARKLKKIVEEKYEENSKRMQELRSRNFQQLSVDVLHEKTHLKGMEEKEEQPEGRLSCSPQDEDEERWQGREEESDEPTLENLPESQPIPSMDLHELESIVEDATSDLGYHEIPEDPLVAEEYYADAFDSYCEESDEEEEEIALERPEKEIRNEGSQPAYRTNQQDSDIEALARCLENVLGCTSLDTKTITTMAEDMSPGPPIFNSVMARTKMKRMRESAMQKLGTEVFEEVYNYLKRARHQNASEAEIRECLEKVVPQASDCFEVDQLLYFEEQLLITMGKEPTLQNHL

AMPKa1(h) = AMPKa1(h) (Homo sapiens, UniProt Q13131); settings: 100 μM
SAPK2b(h) = SAPK2b(h) (Homo sapiens, UniProt Q15759); settings: 100 μM
PDK1(h) = molecular target: T2, PDK1(h) (Homo sapiens, UniProt O15530); settings: 100 μM
T2 sequence (O15530 1-556): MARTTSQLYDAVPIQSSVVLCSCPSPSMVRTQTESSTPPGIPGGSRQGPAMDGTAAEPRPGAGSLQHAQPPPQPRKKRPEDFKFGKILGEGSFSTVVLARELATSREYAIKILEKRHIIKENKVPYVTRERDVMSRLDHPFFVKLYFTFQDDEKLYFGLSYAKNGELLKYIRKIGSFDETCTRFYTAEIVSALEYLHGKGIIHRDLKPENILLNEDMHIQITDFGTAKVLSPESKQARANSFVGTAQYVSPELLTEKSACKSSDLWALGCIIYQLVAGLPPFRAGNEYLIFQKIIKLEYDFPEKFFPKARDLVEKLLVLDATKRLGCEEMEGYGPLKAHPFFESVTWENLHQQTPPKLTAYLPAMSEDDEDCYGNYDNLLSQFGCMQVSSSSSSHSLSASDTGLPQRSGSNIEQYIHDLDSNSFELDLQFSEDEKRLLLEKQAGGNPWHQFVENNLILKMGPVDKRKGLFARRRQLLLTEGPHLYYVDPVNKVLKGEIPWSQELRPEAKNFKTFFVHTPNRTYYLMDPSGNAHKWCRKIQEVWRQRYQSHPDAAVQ

Sequence of ROCK-II(h) (O75116 whole entry): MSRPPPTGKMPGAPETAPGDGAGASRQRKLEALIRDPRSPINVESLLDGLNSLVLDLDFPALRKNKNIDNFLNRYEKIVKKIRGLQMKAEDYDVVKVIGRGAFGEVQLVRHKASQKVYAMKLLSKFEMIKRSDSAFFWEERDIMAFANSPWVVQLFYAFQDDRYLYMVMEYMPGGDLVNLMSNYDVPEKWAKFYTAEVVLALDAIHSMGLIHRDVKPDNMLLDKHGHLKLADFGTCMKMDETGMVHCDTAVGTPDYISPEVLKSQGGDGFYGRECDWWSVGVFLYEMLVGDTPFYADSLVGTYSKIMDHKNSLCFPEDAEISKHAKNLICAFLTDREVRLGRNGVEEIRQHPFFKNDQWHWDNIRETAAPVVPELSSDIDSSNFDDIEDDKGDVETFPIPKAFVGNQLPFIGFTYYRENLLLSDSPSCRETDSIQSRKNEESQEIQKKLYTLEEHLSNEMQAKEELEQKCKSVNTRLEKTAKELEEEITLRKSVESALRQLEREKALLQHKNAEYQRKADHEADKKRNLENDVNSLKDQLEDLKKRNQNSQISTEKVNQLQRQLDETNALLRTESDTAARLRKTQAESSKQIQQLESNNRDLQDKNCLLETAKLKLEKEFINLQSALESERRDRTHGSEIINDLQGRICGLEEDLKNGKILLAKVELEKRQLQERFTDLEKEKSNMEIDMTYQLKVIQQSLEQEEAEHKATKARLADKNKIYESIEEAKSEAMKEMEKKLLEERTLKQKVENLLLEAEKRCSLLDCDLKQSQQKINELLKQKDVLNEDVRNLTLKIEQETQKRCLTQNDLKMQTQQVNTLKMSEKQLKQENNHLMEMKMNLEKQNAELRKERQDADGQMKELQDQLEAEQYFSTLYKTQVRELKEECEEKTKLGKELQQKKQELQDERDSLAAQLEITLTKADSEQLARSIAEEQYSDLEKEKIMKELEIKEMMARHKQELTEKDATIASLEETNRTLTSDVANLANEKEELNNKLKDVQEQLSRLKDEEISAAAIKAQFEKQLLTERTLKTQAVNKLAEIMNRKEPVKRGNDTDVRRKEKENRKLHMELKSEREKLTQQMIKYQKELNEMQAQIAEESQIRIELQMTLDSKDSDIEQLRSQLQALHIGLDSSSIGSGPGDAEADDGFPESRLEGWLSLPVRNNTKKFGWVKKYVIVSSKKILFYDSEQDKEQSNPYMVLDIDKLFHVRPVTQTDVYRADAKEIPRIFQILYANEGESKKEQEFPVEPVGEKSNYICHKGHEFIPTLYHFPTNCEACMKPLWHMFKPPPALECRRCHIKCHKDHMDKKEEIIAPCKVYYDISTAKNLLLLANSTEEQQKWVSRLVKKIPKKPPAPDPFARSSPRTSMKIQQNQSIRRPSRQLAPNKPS
Sequence of Hck(h) activated (P08631 whole entry): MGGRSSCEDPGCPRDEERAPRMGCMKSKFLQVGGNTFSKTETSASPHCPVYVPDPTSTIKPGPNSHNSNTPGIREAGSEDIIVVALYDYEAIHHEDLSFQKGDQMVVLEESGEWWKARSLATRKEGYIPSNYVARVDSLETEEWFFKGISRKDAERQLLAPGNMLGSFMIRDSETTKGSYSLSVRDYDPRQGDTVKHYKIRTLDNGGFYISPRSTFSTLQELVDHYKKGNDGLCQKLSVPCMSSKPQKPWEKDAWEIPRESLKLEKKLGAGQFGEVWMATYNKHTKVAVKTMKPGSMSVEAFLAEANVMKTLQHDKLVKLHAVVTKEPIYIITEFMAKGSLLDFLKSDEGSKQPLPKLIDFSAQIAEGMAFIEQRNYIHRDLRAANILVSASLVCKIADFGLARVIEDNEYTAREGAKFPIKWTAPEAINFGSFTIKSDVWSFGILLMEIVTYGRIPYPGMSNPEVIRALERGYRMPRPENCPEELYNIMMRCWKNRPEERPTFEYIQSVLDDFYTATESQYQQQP
Sequence of CDK5/p35(h) (Q00535 whole entry): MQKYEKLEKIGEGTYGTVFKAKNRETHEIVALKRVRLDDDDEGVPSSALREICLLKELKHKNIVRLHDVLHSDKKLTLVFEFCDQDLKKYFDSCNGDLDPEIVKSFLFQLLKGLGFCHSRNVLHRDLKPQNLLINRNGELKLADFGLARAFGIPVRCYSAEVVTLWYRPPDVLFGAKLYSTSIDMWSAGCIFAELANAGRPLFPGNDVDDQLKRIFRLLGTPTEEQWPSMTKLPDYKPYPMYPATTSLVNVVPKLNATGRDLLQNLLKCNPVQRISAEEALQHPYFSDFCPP
Sequence of CDK5/p35(h) (Q15078 whole entry partner): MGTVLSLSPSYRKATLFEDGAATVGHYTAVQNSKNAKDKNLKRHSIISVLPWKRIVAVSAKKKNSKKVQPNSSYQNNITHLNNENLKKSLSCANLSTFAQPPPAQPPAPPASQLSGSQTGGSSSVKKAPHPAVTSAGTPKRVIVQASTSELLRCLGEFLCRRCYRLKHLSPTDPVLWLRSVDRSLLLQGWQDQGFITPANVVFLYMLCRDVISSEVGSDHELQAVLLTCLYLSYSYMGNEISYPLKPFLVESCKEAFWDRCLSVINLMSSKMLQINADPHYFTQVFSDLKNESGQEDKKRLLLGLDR
Sequence of SAPK2b(h) (Q15759 whole entry): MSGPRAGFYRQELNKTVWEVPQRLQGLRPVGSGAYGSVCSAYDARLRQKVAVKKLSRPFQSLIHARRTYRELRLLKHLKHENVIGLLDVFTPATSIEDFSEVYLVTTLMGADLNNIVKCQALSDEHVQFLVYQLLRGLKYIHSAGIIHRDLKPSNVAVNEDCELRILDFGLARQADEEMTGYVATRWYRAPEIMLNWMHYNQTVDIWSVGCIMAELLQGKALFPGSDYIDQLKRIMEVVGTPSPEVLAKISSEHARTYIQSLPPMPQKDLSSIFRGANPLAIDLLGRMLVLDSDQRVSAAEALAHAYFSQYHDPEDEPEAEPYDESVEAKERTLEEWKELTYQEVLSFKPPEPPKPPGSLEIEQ
Sequence of Met(h) (P08581 25-1408 isoform P08581-2 limits assumed): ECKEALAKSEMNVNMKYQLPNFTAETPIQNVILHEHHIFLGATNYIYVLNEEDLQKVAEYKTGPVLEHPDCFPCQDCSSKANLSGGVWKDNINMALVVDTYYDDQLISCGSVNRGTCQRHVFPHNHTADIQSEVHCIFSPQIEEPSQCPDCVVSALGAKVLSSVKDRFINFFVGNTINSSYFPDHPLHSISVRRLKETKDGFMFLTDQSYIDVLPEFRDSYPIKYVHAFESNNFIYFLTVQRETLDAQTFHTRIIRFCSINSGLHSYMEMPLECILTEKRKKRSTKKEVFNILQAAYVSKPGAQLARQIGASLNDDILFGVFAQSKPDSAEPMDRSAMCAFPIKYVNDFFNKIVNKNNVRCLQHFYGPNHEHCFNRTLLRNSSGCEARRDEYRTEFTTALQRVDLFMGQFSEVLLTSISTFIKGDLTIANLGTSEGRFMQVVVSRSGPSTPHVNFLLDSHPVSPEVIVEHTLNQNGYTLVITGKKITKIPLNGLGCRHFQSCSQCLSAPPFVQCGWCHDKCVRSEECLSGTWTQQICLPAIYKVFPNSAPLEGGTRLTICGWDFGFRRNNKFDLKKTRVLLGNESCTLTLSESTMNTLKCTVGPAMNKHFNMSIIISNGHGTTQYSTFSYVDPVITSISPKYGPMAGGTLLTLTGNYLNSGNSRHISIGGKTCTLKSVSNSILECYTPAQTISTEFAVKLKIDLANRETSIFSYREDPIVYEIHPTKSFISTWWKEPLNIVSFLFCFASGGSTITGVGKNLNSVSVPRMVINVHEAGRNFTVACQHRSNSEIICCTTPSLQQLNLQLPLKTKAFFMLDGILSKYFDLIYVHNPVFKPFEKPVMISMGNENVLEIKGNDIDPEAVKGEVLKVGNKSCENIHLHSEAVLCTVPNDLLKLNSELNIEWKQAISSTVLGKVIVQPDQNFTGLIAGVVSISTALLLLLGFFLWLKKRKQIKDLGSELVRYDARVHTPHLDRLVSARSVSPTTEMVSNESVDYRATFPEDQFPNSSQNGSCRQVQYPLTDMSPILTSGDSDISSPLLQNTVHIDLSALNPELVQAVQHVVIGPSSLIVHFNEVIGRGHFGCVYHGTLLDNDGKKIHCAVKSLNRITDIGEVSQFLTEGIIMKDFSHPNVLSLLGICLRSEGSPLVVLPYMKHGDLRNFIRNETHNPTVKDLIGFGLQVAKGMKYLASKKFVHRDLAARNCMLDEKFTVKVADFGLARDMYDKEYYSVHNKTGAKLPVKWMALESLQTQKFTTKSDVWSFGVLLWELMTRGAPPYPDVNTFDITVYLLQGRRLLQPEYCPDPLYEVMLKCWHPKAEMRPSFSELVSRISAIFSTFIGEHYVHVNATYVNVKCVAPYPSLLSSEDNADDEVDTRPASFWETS
Sequence of DAPK2(h) (Q9UIK4 whole entry): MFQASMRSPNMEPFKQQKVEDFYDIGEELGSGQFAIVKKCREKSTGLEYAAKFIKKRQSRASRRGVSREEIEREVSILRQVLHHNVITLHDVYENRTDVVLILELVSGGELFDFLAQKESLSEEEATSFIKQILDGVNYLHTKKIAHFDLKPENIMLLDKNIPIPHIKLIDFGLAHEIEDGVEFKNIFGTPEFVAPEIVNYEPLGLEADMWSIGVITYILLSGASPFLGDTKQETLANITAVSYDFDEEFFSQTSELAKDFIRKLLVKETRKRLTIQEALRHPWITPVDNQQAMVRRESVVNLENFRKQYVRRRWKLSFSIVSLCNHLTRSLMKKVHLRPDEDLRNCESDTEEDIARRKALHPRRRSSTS
Sequence of GSK3β(h) (P49841 whole entry): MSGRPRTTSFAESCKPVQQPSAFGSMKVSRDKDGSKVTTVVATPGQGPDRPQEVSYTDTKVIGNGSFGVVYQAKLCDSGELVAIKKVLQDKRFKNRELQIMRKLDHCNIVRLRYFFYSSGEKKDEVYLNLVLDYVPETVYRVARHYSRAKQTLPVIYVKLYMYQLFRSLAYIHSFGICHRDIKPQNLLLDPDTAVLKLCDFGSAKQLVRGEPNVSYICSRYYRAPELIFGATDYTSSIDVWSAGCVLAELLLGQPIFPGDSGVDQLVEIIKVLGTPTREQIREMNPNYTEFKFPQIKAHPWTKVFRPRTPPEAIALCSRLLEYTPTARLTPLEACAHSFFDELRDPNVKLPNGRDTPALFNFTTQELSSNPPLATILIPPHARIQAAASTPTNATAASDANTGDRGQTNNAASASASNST

Substance | % activity (cKit(V654A)(h); 100 μM) | % activity (Met(h)) | % activity (cKit(D816H)(h); 100 μM) | % activity (DAPK2(h)) | % activity (GSK3β(h)) | % activity (Hck(h) activated) | % activity (CDK5/p35(h)) | % activity (CaMKIIδ(h)) | % activity (ROCK-II(h)) | % activity (Rsk2(h)) | % activity (TLK2(h)) | % activity (NEK11(h)) | % activity (AMPKa1(h)) | % activity (SAPK2b(h)) | % activity (PDK1(h)) | activity at 100 µM (cKit(V654A)(h)) | activity at 100 µM (cKit(D816H)(h))
HRRIKAWLKKIKALARQLGVAA (Mammalian) [MMI-0500] | 223% | 27% | 194% | 3% | 238% | 67% | 59% | 1% | 2% | 14% | 133% | 2% | 35% | 42% | 178% |  | 
YARAAARQARAKALNRQLGVA (Mammalian) [MMI-0200] |  | 71% |  | 92% | 132% | 100% | 92% | 2% | 85% | 101% | 129% | 95% | 108% | 95% | 143% |  | 
H-YARAAARQARAKALARQLGVAA-OH [MMI-0100] |  |  |  |  |  |  |  |  |  |  |  |  |  |  |  | 69% | 79%
